T1: TIM-3 ECD (extracellular domain of T cell immunoglobulin and mucin domain 3 protein) (UniProt Q8TDQ0 22-202, limits assumed)
T1 construct: extracellular domain; also called CD366
T1 sequence (looked up): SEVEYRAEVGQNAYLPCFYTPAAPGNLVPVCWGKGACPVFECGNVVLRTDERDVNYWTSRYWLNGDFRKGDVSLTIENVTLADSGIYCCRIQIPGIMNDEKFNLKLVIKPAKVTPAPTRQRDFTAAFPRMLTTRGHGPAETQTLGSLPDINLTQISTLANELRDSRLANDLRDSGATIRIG

B1: TRL6061 (antibody, V domains shown)
VH: QVQLVESGGGVVQPGRSLRLSCAASGFMFSTSAMHWVRQTPGKGLEWLAVIWHDGSEKYYADSVKGRFSISRDNYRDTLYLQMNNLRVEDTAIYYCRGGDVYEIWGQGTMVAVSS
VL: DDIMLTQPPSVSVSPGQTARITCSGDAVAKRYVYWYQQKSGQAPVLVMYEDNKRPSGIPERFSGSSSGTKATLTITGALVEDEADYYCYSTDSSGNLGAFGGGSKLTVL
notes: Lambda light chain
B2: TRL6042 (antibody, V domains shown)
VH: QVQLVESGAEVKKPGESLKISCEGSGYKFTSYWIGWVRQMPGRGPEWMGLIYPSDSDTRYSPSFRGQVTISVDKTISTAYLQWSSLKTSDTAIYYCARLLLATECTSDSCFGDAFDIWGQGTMVTVSS
VL: DIVLTQSPTFLSASVGDRVTITCRASQGISSYLAWYQQKPGKAPKLLLYAASTLQSGVPSRFSGSRSGTEFTLTISSLQPEDFASYYCQQFHNYPFTFGGGTKVEIKR
notes: Native human mAb produced recombinantly; Kappa light chain; also called TIM-3 TRLmAb 6042
B3: TRL6099 (antibody, V domains shown)
VH: QVQLVESGAEVKKPGASVKVSCKAFNYTFTSYGISWVRQTPEHGLEWMGWITNSNSNSAQKFQGRVSMTTDTSTSTAYMQLRSLSSDDTAVYYCARIYIDYNNYGLDVWGQGTTVTVSS
VL: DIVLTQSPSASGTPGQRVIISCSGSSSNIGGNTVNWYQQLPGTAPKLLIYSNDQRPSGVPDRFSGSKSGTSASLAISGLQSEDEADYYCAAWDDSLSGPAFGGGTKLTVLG
notes: Lambda light chain
B4: TRL6120 (antibody, V domains shown)
VH: QVQLVESGGGVVQPGRSLRLSCVASGFIFRTYAMHWVRQAPGKGLEWVAVIWPDGSERYYSDSTKGRFTVSRDNSKNTLFLQMNSLRVDDTAMYYCFARGYSDSDYADHWGRGTRVTVSS
VL: DIVMTQSPSVSVSPGQTARITCSGDALSTKFAYWYQQKSGQAPVLVIYEDNKRPSGIPERFSGSGSGTMATLSVSEAQVEDEADYYCFSSDSSGNLFMFGGGTKLTVL
notes: Lambda light chain; also called TIM-3 TRLmAb 6120

biological target: T1, TIM-3 ECD (extracellular domain of T …); test: adsorption ELISA on TIM-3 ECD, serial dilutions of purified mAb, estimate of binding affinity
Protocol: Purified mAbs were tested in adsorption ELISA using TIM-3 ECD, generated by Trellis in mammalian cells.

Row | Affinity [nM] | Binder
1 | 0.005 | B1
2 | 5 | B2
3 | 0.011 | B3
4 | 28 | B4
